From US11180762B2, “Methods and compositions for the treatment of cancer” (CHILDREN'S MEDICAL CENTER CORPORATION, priority 2014, dated 2021)
“Also recorded” adds a separate entry of the source.

B1: EpCAM-AsiC: EpCAM aptamer-siRNA chimera, siRNA cargo not specified at the place; 2'-fluoropyrimidines, 3'-dTdT (nucleic acid)
sense: GCGACUGGUUACCCGGUCGUUUUGAAGAAGAUCACCCUCCUUATT
antisense: UAAGGAGGGUGAUCUUCUUCATT
modifications: DNA at T, 2'-fluoro at CU, RNA at AG, backbone not given here; further chemistry not fully specified
notes: EpCAM aptamer-siRNA chimera, siRNA cargo not specified at the place; 2'-fluoropyrimidines, 3'-dTdT
B2: PLK1 EpCAM-AsiC: EpCAM aptamer linked by U-U-U to PLK1 siRNA sense strand (SEQ ID NO: 1), annealed to antisense strand (SEQ ID NO: 2) (nucleic acid)
sense: B1 sense
antisense: UAAGGAGGGUGAUCUUCUUCATT
modifications: DNA at T, 2'-fluoro at CU, RNA at AG, backbone not given here; EpCAM aptamer fused to sense strand

What was measured:
[1] = system: IFNβ, IL-6, IP-10 and IFN-induced genes; test: Innate immune stimulation in mice; format: in vivo; settings: 5 mg/kg sc
Description: Mice were injected sc with eGFP EpCAM-AsiCs (5 mg/kg, n=3) or ip with Poly(I:C) (5 or 50 mg/kg (n=2/dose). FIG. 8A: Serum samples, collected at baseline and 6 and 16 hr after treatment were assessed for IFNβ, IL-6 and IP-10 by multiplex immunoassay. * p<0.05. ** p<0.01, *** p<0.001, compared to baseline. FIG. 8B: mRNA expression of cytokine and IFN-induced genes, relative to gapdh was assayed by qRT-PCR in total splenocytes harvested 16 hr post treatment. ** p<0.01, compared to untreated (NT, n=3).
Mice were injected sc with eGFP EpCAM-AsiCs (5 mg/kg) or ip with Poly(I:C) (5 or 50 mg/kg). Serum samples, collected at baseline and 6 and 16 hr after treatment were stored at −80° C. before measuring IFNβ, IL-6 and IP-10 using the ProcartaPlex Multiplex Immunoassay (Affymetrix/eBioscience, San Diego, Calif.). Spleens, harvested at sacrifice 16 hr post treatment, were stored in RNAlater (Qiagen) before extracting RNA using TRIZOL (Invitrogen) with the gentleMACS Dissociator (MACS Miltenyi Biotec, San Diego, Calif.). cDNA was synthesized using Superscript III and random hexamers (Invitrogen) and PCR was performed using SsoFast EvaGreen Supermix and a Bio-Rad CFX96 Real-Time PCR System (Bio-Rad Laboratories, Hercules, Calif.) using the following primers: […]

[2] = system: human breast tumor and normal breast tissue biopsies; test: Uptake in human breast tumor and normal tissue biopsy explants; format: cell-based; settings: 2 μM; 24 h; flow cytometry of single cell suspensions
Description: It was next examined whether EpCAM-AsiCs concentrate in human breast tumors relative to normal breast samples within intact tissues. Paired normal tissue and breast tumor biopsies from 3 breast cancer patients were cut into cubes with −3 mm edges and placed in Petri dishes. The tumor sample cells were all EpCAM^bright and the normal tissue cells were EpCAM^dim (FIG. 3A). Fluorescently labeled Alexa647-siRNAs (not expected to be taken up by either normal tissue or tumor), Alexa647-cholesterol-conjugated siRNAs (chol-siRNAs, expected to be taken up by both), or Cy3-EpCAM-AsiCs were added to the culture medium and the tissues were incubated for 24 hr before harvest. The Cy3 signal of the AsiC, which could be visualized by the naked eye, concentrated only in the tumor specimens and was not detected in normal tissue (FIG. 3B). To quantify RNA uptake, flow cytometry analysis was performed on washed single cell suspensions of the tissue specimens (representative tumor-normal tissue pair (FIG. 3C), mean±SD of triplicate biospies from 3 EpCAM^bright paired breast tumor-normal tissue samples (FIG. 3D)). […] Thus, within intact tissue, EpCAM-AsiCs are selectively delivered to EpCAM^bright tumors relative to normal tissue. […]

[3] = system: breast cancer cell lines; test: Sphere (mammosphere) formation assay; format: cell-based, human
Description: (§1) For colony formation assay, 1,000 viable cells were treated for 6 h in round bottom 96-well plates and then transferred to 10-cm plates in serum-containing medium. Medium was replaced every 3 d. After 8-14 d, cells were fixed in methanol (−20 C) and stained with crystal violet. For sphere formation assay, 1,000/ml viable cells were treated for 6 h in round bottom 96-well plates and then cultured in suspension in serum-free DMEM/F12 1:1 (Invitrogen), supplemented with EGF (20 ng/ml, BD Biosciences), B27 (1:50, Invitrogen), 0.4% bovine serum albumin (Sigma) and 4 μg/ml insulin (Sigma). Spheres were counted after 1 or 2 weeks.

[4] = system: basal-A, luminal and basal-B breast cancer cell lines; test: Cell proliferation/viability by CellTiter-Glo in 10 breast cancer cell lines; format: cell-based, human
Description: To explore whether EpCAM-AsiCs could be used as anti-tumor agents in breast cancer, we examined by CellTiterGlo assay the effect of AsiCs directed against PLK1, a kinase required for mitosis, on survival of 10 breast cancer cell lines that included 5 basal-A TNBCs, 2 luminal cell lines, and 3 basal-B TNBCs. […] The anti-proliferative effect strongly correlated with EpCAM expression (FIG. 2B). The reduction in viable EpCAM+ cells after knockdown was due to induction of apoptosis, assessed by annexin V-propidium iodide staining and caspase activation (data not shown). To determine whether ligation of the EpCAM aptamer contributed to the anti-proliferative effect of the EpCAM-AsiC, we compared survival of cells that were treated with the PLK1 EpCAM-AsiC with cells treated with the aptamer on its own (FIG. 2C). […] Thus the PLK1 EpCAM-AsiC asserts its specific anti-tumor effect on EpCAM+ breast cancer cells by gene knockdown.
For uptake and silencing treatment, cells were plated at low density (10,000 cells/well in 96-well plates) and treated immediately. All AsiC and siRNA treatments were performed in either OptiMEM or WIT medium. Cell viability was assessed by CellTiter-Glo (Promega) or by Trypan-Blue staining in 96-well plates.

[5] = system: breast cancer cell lines; test: Colony formation assay; format: cell-based, human; settings: AsiC 4 uM, paclitaxel 100 nM
Description: as §1

[6] = listed as EpCAM-AsiC targeting PLK1
[7] = listed as EpCAM-AsiCs targeting PLK1

| Molecule | innate immune stimulation [1] | innate immune stimulation ([1]; listed as EpCAM AsiCs) | uptake by breast tumor vs normal tissue [2] | sphere/mammosphere formation, EpCAM+ basal-A and luminal lines [3, 6] | sphere/mammosphere formation, EpCAM− basal-B lines [3, 6] | sphere/mammosphere formation, EpCAM+ basal-A and luminal lines ([3]; listed as PLK1 EpCAM-AsiCs) | sphere/mammosphere formation, EpCAM− basal-B lines ([3]; listed as PLK1 EpCAM-AsiCs) | cell proliferation/viability, basal-A and luminal (EpCAM+) lines [4, 6] | cell proliferation/viability, basal-B lines [4, 6] | cell proliferation/viability, basal-A and luminal (EpCAM+) lines [4, 7] | cell proliferation/viability, basal-B lines [4, 7] | colony formation, EpCAM+ basal-A and luminal lines [5, 6] | colony formation, EpCAM− basal-B lines [5, 6] | colony formation, EpCAM+ basal-A and luminal lines ([5]; listed as PLK1 EpCAM-AsiCs) | colony formation, EpCAM− basal-B lines ([5]; listed as PLK1 EpCAM-AsiCs) |
| --- | --- | --- | --- | --- | --- | --- | --- | --- | --- | --- | --- | --- | --- | --- | --- |
| B1 | do not trigger innate immunity | does not stimulate innate immunity in mice | concentrated only in the tumors |  |  |  |  |  |  |  |  |  |  |  |  |
| B2 |  |  |  | specifically inhibited sphere formation in basal A and luminal; also recorded: decreased the number of spheres only in basal A and luminal cells | had no effect on basal B cells | more strongly inhibited colony and mammosphere formation of EpCAM+ basal-A TNBCs and luminal cell lines than paclitaxel; also recorded: eliminated mammosphere and colony formation; also recorded: more strongly inhibited colony and mammosphere formation of multiple EpCAM+ basal-like TNBCs and a luminal cell line than paclitaxel | inactive against EpCAM− basal-B TNBCs | displayed a decrease in cell viability; also recorded: decreased cell proliferation in both basal A and luminal cell lines; also recorded: suppressed cell viability in basal A and luminal cell lines | having no effect on basal B cells | decreased cell proliferation | did not inhibit basal-B cells | lost the ability to form colonies; also recorded: only eliminated colony formation in luminal (MCF7) and basal A (HCC1954) cells | did not effect colony formation | more strongly inhibited colony and mammosphere formation of EpCAM+ basal-A TNBCs and luminal cell lines than paclitaxel; also recorded: eliminated mammosphere and colony formation; also recorded: more strongly inhibited colony and mammosphere formation of multiple EpCAM+ basal-like TNBCs and a luminal cell line than paclitaxel | inactive against EpCAM− basal-B TNBCs |
